# Assay results published in IntAct's records for PubMed 31515488.
# B1: Ubiquitin thioesterase OTUB2 (Homo sapiens), Q96DC9 (parent)
# chain: MSETSFNLISEKCDILSILRDHPENRIYRRKIEELSKRFTAIRKTKGDGNCFYRALGYSYLESLLGKSREIFKFKERVLQTPNDLLAAGFEEHKFRNFFNAFYSVVELVEKDGSVSSLLKVFNDQSASDHIVQFLRLLTSAFIRNRADFFRHFIDEEMDIKDFCTHEVEPMATECDHIQITALSQALSIALQVEYVDEMDTALNHHVFPEAATPSVYLLYKTSHYNILYAADKH
# partner: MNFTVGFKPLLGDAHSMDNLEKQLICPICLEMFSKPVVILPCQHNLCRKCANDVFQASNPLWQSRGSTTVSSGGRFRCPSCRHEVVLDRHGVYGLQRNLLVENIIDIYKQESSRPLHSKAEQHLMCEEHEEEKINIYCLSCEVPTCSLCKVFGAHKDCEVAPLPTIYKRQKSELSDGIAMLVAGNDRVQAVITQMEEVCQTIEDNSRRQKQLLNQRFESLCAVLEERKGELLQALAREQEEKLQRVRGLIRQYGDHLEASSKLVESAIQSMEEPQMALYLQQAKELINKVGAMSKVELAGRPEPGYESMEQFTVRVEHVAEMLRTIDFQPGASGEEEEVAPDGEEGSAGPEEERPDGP
# B2: Actin filament-associated protein 1-like 1 (Homo sapiens), Q8TED9 (parent)
# chain: MDRGQVLEQLLPELTGLLSLLDHEYLSDTTLEKKMAVASILQSLQPLPAKEVSYLYVNTADLHSGPSFVESLFEEFDCDLSDLRDMPEDDGEPSKGASPELAKSPRLRNAADLPPPLPNKPPPEDYYEEALPLGPGKSPEYISSHNGCSPSHSIVDGYYEDADSSYPATRVNGELKSSYNDSDAMSSSYESYDEEEEEGKSPQPRHQWPSEEASMHLVRECRICAFLLRKKRFGQWAKQLTVIREDQLLCYKSSKDRQPHLRLALDTCSIIYVPKDSRHKRHELRFTQGATEVLVLALQSREQAEEWLKVIREVSKPVGGAEGVEVPRSPVLLCKLDLDKRLSQEKQTSDSDSVGVGDNCSTLGRRETCDHGKGKKSSLAELKGSMSRAAGRKITRIIGFSKKKTLADDLQTSSTEEEVPCCGYLNVLVNQGWKERWCRLKCNTLYFHKDHMDLRTHVNAIALQGCEVAPGFGPRHPFAFRILRNRQEVAILEASCSEDMGRWLGLLLVEMGSRVTPEALHYDYVDVETLTSIVSAGRNSFLYARSCQNQWPEPRVYDDVPYEKMQDEEPERPTGAQVKRHASSCSEKSHRVDPQVKVKRHASSANQYKYGKNRAEEDARRYLVEKEKLEKEKETIRTELIALRQEKRELKEAIRSSPGAKLKALEEAVATLEAQCRAKEERRIDLELKLVAVKERLQQSLAGGPALGLSVSSKPKSGETANKPQNSVPEQPLPVNCVSELRKRSPSIVASNQGRVLQKAKEWEMKKT
# partner: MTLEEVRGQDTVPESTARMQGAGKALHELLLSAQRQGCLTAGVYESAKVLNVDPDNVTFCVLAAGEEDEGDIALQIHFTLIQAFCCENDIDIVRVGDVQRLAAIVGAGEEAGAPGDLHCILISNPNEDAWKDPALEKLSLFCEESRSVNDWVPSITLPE
# B3: Fructose-1,6-bisphosphatase 1 (Homo sapiens), P09467 (parent)
# chain: MADQAPFDTDVNTLTRFVMEEGRKARGTGELTQLLNSLCTAVKAISSAVRKAGIAHLYGIAGSTNVTGDQVKKLDVLSNDLVMNMLKSSFATCVLVSEEDKHAIIVEPEKRGKYVVCFDPLDGSSNIDCLVSVGTIFGIYRKKSTDEPSEKDALQPGRNLVAAGYALYGSATMLVLAMDCGVNCFMLDPAIGEFILVDKDVKIKKKGKIYSLNEGYARDFDPAVTEYIQRKKFPPDNSAPYGARYVGSMVADVHRTLVYGGIFLYPANKKSPNGKLRLLYECNPMAYVMEKAGGMATTGKEAVLDVIPTDIHQRAPVILGSPDDVLEFLKVYEKHSAQ
# partner: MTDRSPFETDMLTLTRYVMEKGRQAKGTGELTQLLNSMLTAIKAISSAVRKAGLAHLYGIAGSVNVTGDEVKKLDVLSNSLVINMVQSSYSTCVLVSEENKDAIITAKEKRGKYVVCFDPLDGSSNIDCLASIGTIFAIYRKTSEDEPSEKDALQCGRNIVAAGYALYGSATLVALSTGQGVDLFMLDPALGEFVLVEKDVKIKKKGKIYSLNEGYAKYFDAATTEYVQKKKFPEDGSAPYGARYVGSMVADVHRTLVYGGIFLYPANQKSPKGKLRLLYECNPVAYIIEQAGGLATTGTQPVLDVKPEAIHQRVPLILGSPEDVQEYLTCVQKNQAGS
# B4: Angiomotin (Homo sapiens), Q4VCS5 (parent)
# chain: MRNSEEQPSGGTTVLQRLLQEQLRYGNPSENRSLLAIHQQATGNGPPFPSGSGNPGPQSDVLSPQDHHQQLVAHAARQEPQGQEIQSENLIMEKQLSPRMQNNEELPTYEEAKVQSQYFRGQQHASVGAAFYVTGVTNQKMRTEGRPSVQRLNPGKMHQDEGLRDLKQGHVRSLSERLMQMSLATSGVKAHPPVTSAPLSPPQPNDLYKNPTSSSEFYKAQGPLPNQHSLKGMEHRGPPPEYPFKGMPPQSVVCKPQEPGHFYSEHRLNQPGRTEGQLMRYQHPPEYGAARPAQDISLPLSARNSQPHSPTSSLTSGGSLPLLQSPPSTRLSPARHPLVPNQGDHSAHLPRPQQHFLPNQAHQGDHYRLSQPGLSQQQQQQQQQHHHHHHHQQQQQQQPQQQPGEAYSAMPRAQPSSASYQPVPADPFAIVSRAQQMVEILSDENRNLRQELEGCYEKVARLQKVETEIQRVSEAYENLVKSSSKREALEKAMRNKLEGEIRRMHDFNRDLRERLETANKQLAEKEYEGSEDTRKTISQLFAKNKESQREKEKLEAELATARSTNEDQRRHIEIRDQALSNAQAKVVKLEEELKKKQVYVDKVEKMQQALVQLQAACEKREQLEHRLRTRLERELESLRIQQRQGNCQPTNVSEYNAAALMELLREKEERILALEADMTKWEQKYLEENVMRHFALDAAATVAAQRDTTVISHSPNTSYDTALEARIQKEEEEILMANKRCLDMEGRIKTLHAQIIEKDAMIKVLQQRSRKEPSKTEQLSCMRPAKSLMSISNAGSGLLSHSSTLTGSPIMEEKRDDKSWKGSLGILLGGDYRAEYVPSTPSPVPPSTPLLSAHSKTGSRDCSTQTERGTESNKTAAVAPISVPAPVAAAATAAAITATAATITTTMVAAAPVAVAAAAAPAAAAAPSPATAAATAAAVSPAAAGQIPAAASVASAAAVAPSAAAAAAVQVAPAAPAPVPAPALVPVPAPAAAQASAPAQTQAPTSAPAVAPTPAPTPTPAVAQAEVPASPATGPGPHRLSIPSLTCNPDKTDGPVFHSNTLERKTPIQILGQEPDAEMVEYLI
# partner: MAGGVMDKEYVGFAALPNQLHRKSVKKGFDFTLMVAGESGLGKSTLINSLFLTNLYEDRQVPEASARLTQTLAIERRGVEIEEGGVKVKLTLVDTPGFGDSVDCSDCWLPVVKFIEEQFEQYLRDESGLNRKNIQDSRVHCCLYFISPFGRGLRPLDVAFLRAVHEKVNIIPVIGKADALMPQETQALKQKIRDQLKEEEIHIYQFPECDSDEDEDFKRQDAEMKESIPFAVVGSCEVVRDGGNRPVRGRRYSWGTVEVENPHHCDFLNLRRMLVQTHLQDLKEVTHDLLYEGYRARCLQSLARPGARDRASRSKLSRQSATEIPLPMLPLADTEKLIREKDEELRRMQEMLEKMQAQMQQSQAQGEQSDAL
# B5: Notch homolog 2 N-terminal-like protein A (Homo sapiens), Q7Z3S9 (parent)
# chain: MCVTYHNGTGYCKCPEGFLGEYCQHRDPCEKNRCQNGGTCVAQAMLGKATCRCASGFTGEDCQYSTSHPCFVSRPCLNGGTCHMLSRDTYECTCQVGFTGKECQWTDACLSHPCANGSTCTTVANQFSCKCLTGFTGQKCETDVNECDIPGHCQHGGTCLNLPGSYQCQCLQGFTGQYCDSLYVPCAPSPCVNGGTCRQTGDFTFECNCLPETVRRGTELWERDREVWNGKEHDEN
# partner: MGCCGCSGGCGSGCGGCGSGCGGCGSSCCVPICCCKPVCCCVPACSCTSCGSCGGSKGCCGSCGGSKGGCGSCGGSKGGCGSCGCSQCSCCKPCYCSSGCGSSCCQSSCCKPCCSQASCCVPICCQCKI
# Variants of: B1
# Conditions: with tri54_human TRIM54, Q9BYV2
row,Variant,effect of a mutation on the interaction
1,V78I,with no effect

# Variants of: B2
# Conditions: with ga45g_human GADD45G
row,Variant,effect of a mutation on the interaction
1,L406P,with no effect
2,S98N,with no effect

# Variants of: B3
# Conditions: with FBP2, O00757
row,Variant,effect of a mutation on the interaction
1,G260R,disrupting interaction strength

# Variants of: B4
# Conditions: with sept1_human SEPTIN1, Q8WYJ6
row,Variant,effect of a mutation on the interaction
1,T899A,with no effect

# Variants of: B5
# Conditions: with kra56_human KRTAP5-6, Q6L8G9
row,Variant,effect of a mutation on the interaction
1,A115T,with no effect
